The experiment concerns the target TGFβ in media conditioned by B16F10 melanoma cells (murine (produced by murine B16F10 cells)). Briefly: cell-based or functional assay.

Experimental findings from patent US20040110131A1 are described below.

With “TSR2+RFK recombinant protein (second type 1 repeat of human TSP-1 with the RFK sequence, amino acids 411-473)”, the level of active TGFβ as percent of total TGFβ (MLEC PAI-1 promoter luciferase assay) (% of total TGFβ) stood at 30.
The result for “TSR2 recombinant protein (second type 1 repeat of human TSP-1 without the DKRFK sequence, amino acids 416-473)” reads 4.8.
